# Measured values as given in IntAct's records for PubMed 31515488.
# B1: Hematopoietic prostaglandin D synthase (Homo sapiens), O60760 (parent)
# chain: MPNYKLTYFNMRGRAEIIRYIFAYLDIQYEDHRIEQADWPEIKSTLPFGKIPILEVDGLTLHQSLAIARYLTKNTDLAGNTEMEQCHVDAIVDTLDDFMSCFPWAEKKQDVKEQMFNELLTYNAPHLMQDLDTYLGGREWLIGNSVTWADFYWEICSTTLLVFKPDLLDNHPRLVTLRKKVQAIPAVANWIKRRPQTKL
# partner: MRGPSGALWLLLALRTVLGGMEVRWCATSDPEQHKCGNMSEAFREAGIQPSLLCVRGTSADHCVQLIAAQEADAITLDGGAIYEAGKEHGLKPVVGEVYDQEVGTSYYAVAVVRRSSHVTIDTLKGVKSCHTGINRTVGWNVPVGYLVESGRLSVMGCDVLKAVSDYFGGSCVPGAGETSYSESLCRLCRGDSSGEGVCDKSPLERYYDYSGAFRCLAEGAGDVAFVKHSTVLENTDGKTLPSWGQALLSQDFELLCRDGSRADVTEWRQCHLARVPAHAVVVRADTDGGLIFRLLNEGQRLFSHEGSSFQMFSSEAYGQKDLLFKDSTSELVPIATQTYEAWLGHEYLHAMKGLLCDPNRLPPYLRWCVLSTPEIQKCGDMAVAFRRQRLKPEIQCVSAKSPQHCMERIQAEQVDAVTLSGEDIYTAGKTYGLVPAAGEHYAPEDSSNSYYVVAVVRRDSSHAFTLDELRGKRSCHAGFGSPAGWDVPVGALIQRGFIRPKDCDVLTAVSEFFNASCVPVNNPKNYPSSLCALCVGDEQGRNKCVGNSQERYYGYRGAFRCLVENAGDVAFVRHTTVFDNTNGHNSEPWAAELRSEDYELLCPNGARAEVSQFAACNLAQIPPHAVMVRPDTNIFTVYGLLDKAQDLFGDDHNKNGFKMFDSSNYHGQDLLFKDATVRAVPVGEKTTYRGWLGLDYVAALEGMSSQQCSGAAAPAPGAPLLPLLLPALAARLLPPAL
# B2: Zinc finger CCHC domain-containing protein 10 (Homo sapiens), Q8TBK6 (parent)
# chain: MATPMHRLIARRQAFDTELQPVKTFWILIQPSIVISEANKQHVRCQKCLEFGHWTYECTGKRKYLHRPSRTAELKKALKEKENRLLLQQSIGETNVERKAKKKRSKSVTSSSSSSSDSSASDSSSESEETSTSSSSEDSDTDESSSSSSSSASSTTSSSSSDSDSDSSSSSSSSTSTDSSSDDEPPKKKKKK
# B3: Conserved oligomeric Golgi complex subunit 7 (Homo sapiens), P83436 (parent)
# chain: MDFSKFLADDFDVKEWINAAFRAGSKEAASGKADGHAATLVMKLQLFIQEVNHAVEETSHQALQNMPKVLRDVEALKQEASFLKEQMILVKEDIKKFEQDTSQSMQVLVEIDQVKSRMQLAAESLQEADKWSTLSADIEETFKTQDIAVISAKLTGMQNSLMMLVDTPDYSEKCVHLEALKNRLEALASPQIVAAFTSQAVDQSKVFVKVFTEIDRMPQLLAYYYKCHKVQLLAAWQELCQSDLSLDRQLTGLYDALLGAWHTQIQWATQVFQKPHEVVMVLLIQTLGALMPSLPSCLSNGVERAGPEQELTRLLEFYDATAHFAKGLEMALLPHLHEHNLVKVTELVDAVYDPYKPYQLKYGDMEESNLLIQMSAVPLEHGEVIDCVQELSHSVNKLFGLASAAVDRCVRFTNGLGTCGLLSALKSLFAKYVSDFTSTLQSIRKKCKLDHIPPNSLFQEDWTAFQNSIRIIATCGELLRHCGDFEQQLANRILSTAGKYLSDSCSPRSLAGFQESILTDKKNSAKNPWQEYNYLQKDNPAEYASLMEILYTLKEKGSSNHNLLAAPRAALTRLNQQAHQLAFDSVFLRIKQQLLLISKMDSWNTAGIGETLTDELPAFSLTPLEYISNIGQYIMSLPLNLEPFVTQEDSALELALHAGKLPFPPEQGDELPELDNMADNWLGSIARATMQTYCDAILQIPELSPHSAKQLATDIDYLINVMDALGLQPSRTLQHIVTLLKTRPEDYRQVSKGLPRRLATTVATMRSVNY
# B4: Centrin-1 (Homo sapiens), Q12798 (parent)
# chain: MASGFKKPSAASTGQKRKVAPKPELTEDQKQEVREAFDLFDVDGSGTIDAKELKVAMRALGFEPRKEEMKKMISEVDREGTGKISFNDFLAVMTQKMSEKDTKEEILKAFRLFDDDETGKISFKNLKRVANELGENLTDEELQEMIDEADRDGDGEVNEEEFLRIMKKTSLY
# partner: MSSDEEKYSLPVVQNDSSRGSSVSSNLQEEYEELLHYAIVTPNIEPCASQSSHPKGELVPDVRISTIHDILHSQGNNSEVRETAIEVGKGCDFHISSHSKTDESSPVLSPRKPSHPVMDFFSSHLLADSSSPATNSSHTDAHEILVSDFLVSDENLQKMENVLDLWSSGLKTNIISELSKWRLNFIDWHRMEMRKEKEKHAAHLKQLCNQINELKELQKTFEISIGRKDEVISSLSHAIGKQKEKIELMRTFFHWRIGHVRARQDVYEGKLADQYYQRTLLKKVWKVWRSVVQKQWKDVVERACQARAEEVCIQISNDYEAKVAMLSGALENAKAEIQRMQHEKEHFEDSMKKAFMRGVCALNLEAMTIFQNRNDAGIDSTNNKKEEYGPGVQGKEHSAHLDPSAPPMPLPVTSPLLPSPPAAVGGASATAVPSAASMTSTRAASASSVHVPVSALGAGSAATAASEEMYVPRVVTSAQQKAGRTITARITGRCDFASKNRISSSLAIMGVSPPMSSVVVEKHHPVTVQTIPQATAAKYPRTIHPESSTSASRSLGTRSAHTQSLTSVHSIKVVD
# B5: Zinc finger protein Aiolos (Homo sapiens), Q9UKT9 (parent)
# chain: MEDIQTNAELKSTQEQSVPAESAAVLNDYSLTKSHEMENVDSGEGPANEDEDIGDDSMKVKDEYSERDENVLKSEPMGNAEEPEIPYSYSREYNEYENIKLERHVVSFDSSRPTSGKMNCDVCGLSCISFNVLMVHKRSHTGERPFQCNQCGASFTQKGNLLRHIKLHTGEKPFKCHLCNYACQRRDALTGHLRTHSVEKPYKCEFCGRSYKQRSSLEEHKERCRTFLQSTDPGDTASAEARHIKAEMGSERALVLDRLASNVAKRKSSMPQKFIGEKRHCFDVNYNSSYMYEKESELIQTRMMDQAINNAISYLGAEALRPLVQTPPAPTSEMVPVISSMYPIALTRAEMSNGAPQELEKKSIHLPEKSVPSERGLSPNNSGHDSTDTDSNHEERQNHIYQQNHMVLSRARNGMPLLKEVPRSYELLKPPPICPRDSVKVINKEGEVMDVYRCDHCRVLFLDYVMFTIHMGCHGFRDPFECNMCGYRSHDRYEFSSHIARGEHRALLK
# partner: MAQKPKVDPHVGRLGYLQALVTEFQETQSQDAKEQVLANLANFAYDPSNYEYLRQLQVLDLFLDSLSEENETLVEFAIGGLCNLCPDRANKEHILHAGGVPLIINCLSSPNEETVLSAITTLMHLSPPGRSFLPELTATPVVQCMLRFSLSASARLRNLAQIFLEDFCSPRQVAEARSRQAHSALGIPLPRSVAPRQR
# Variants of: B1
# Settings: with trfm_human MELTF
row,effect of a mutation on the interaction,Variant
1,disrupting interaction strength,M128T

# Variants of: B2
# Settings: with cep70_human CEP70, Q8NHQ1
# cep70_human CEP70, Q8NHQ1, sequence (Q8NHQ1 whole entry): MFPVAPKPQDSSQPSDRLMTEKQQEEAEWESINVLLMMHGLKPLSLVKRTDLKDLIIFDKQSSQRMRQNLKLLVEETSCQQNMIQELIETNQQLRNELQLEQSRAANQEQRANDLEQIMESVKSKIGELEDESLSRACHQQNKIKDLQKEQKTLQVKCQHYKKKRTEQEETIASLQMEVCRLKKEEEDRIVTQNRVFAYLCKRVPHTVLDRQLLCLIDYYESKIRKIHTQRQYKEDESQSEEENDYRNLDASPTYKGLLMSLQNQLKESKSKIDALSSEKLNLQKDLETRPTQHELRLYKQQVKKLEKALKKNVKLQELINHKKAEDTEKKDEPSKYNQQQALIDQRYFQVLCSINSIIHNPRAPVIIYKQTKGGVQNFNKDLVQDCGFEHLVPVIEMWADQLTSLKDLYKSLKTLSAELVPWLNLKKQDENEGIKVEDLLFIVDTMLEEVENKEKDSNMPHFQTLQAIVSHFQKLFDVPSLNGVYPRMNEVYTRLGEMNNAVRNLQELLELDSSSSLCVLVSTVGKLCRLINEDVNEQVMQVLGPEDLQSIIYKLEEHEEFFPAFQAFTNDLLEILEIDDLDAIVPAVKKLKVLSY
row,effect of a mutation on the interaction,Variant
1,with no effect,S153P

# Variants of: B2
# Settings: with dzip3_human DZIP3, Q86Y13
# dzip3_human DZIP3, Q86Y13, sequence (Q86Y13 whole entry): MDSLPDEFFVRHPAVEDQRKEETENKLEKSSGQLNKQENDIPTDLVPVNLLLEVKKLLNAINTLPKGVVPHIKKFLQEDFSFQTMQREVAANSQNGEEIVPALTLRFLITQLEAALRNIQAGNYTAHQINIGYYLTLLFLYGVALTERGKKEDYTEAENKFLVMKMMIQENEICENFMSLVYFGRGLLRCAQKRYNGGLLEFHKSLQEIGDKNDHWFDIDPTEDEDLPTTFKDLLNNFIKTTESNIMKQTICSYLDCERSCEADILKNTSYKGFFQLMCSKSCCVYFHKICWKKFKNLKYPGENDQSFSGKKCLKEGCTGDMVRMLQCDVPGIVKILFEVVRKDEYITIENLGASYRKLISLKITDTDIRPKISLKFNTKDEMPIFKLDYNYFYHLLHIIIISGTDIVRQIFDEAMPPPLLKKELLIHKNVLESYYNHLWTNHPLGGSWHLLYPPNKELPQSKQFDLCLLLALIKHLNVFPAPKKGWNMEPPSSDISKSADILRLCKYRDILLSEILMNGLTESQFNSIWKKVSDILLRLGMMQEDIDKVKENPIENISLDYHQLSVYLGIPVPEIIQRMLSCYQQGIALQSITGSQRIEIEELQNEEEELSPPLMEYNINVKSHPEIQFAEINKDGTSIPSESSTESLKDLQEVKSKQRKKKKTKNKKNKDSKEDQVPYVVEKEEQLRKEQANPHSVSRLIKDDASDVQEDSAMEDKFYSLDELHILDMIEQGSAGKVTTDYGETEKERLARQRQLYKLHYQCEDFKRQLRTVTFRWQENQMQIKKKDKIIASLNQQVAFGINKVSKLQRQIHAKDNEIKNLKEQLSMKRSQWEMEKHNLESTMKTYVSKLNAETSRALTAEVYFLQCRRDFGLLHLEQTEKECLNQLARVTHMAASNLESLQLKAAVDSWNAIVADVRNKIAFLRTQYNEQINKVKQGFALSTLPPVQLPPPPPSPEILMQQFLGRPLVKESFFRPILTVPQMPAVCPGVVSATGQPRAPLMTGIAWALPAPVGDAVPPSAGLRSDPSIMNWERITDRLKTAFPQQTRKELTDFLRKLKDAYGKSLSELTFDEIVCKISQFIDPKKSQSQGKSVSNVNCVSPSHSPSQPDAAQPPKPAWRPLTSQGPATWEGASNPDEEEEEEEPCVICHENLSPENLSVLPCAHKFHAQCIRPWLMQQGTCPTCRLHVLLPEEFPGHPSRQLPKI
row,effect of a mutation on the interaction,Variant
1,with no effect,S153P

# Variants of: B3
# Settings: with taxb1_human TAX1BP1, Q86VP1
# taxb1_human TAX1BP1, Q86VP1, sequence (Q86VP1 whole entry): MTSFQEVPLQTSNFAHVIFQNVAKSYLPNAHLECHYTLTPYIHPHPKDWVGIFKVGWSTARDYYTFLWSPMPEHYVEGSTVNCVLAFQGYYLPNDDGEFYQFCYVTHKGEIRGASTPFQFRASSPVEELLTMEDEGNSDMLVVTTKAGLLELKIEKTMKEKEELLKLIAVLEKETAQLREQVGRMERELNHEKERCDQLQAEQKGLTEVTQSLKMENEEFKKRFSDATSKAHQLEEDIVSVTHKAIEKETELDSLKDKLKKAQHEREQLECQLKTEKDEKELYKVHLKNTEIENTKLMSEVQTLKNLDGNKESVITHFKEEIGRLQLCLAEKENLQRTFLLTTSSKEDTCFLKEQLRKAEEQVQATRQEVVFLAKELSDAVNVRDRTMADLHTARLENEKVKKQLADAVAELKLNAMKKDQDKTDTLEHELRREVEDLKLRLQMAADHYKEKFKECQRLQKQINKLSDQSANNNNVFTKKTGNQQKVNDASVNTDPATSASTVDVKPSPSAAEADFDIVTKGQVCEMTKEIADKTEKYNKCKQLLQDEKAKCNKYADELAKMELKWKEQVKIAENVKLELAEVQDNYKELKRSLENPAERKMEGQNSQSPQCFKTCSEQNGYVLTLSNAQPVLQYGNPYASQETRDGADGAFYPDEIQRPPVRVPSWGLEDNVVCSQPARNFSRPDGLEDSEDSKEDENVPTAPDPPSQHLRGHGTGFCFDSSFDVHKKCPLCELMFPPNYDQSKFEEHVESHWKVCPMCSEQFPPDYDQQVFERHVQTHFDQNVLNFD
row,effect of a mutation on the interaction,Variant
1,with no effect,Q749K

# Variants of: B4
# Settings: with poc5_human POC5, Q8NA72
row,effect of a mutation on the interaction,Variant
1,with no effect,M72T

# Variants of: B5
# Settings: with armc7_human ARMC7, Q9H6L4
row,effect of a mutation on the interaction,Variant
1,with no effect,A24V
